Data taken from paper PMC4834642, “Orthogonal ring-closing alkyne and olefin metathesis for the synthesis of small GTPase-targeting bicyclic peptides” (Nature Communications, 2016).
One block for each binder: values may come before it.

Key:
[1] = molecular target: T1, StRIP3 (Homo sapiens, UniProt Q6IQ26); assay: competition fluorescence polarization
T1 chain: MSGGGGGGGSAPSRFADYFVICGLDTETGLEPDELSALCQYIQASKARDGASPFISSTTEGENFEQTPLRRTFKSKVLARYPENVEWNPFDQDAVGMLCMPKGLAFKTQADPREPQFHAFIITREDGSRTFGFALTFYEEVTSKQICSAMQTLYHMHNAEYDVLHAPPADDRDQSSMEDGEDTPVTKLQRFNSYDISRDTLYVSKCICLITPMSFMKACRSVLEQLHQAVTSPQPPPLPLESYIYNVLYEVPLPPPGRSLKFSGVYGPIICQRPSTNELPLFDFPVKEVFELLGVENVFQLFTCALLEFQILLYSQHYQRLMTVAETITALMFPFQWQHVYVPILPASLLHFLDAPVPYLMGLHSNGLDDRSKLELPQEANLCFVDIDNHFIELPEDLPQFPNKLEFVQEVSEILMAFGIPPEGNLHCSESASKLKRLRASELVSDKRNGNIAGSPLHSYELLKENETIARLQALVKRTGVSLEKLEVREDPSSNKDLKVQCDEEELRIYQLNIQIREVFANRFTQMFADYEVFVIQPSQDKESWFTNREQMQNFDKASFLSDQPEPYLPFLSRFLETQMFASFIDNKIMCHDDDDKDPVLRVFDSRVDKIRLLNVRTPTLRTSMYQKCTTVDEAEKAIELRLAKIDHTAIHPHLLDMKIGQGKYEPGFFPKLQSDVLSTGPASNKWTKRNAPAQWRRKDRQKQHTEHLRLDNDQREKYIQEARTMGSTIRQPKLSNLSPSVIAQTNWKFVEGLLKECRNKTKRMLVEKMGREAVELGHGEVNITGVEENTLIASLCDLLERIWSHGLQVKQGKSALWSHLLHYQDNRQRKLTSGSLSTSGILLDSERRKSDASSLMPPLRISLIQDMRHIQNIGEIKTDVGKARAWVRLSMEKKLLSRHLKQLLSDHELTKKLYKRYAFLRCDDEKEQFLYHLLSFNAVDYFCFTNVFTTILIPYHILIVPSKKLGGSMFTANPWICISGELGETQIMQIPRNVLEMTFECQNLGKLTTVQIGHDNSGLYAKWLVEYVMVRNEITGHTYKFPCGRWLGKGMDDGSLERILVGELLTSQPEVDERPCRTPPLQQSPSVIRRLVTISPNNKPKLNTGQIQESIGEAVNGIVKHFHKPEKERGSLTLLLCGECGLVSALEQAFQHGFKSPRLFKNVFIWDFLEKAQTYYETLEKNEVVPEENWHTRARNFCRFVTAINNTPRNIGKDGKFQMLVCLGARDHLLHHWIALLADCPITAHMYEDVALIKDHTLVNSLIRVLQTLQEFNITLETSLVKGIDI

[2] = molecular target: T2, peptide 25 (Homo sapiens, UniProt Q6IQ26); assay: fluorescence polarization
T2 chain: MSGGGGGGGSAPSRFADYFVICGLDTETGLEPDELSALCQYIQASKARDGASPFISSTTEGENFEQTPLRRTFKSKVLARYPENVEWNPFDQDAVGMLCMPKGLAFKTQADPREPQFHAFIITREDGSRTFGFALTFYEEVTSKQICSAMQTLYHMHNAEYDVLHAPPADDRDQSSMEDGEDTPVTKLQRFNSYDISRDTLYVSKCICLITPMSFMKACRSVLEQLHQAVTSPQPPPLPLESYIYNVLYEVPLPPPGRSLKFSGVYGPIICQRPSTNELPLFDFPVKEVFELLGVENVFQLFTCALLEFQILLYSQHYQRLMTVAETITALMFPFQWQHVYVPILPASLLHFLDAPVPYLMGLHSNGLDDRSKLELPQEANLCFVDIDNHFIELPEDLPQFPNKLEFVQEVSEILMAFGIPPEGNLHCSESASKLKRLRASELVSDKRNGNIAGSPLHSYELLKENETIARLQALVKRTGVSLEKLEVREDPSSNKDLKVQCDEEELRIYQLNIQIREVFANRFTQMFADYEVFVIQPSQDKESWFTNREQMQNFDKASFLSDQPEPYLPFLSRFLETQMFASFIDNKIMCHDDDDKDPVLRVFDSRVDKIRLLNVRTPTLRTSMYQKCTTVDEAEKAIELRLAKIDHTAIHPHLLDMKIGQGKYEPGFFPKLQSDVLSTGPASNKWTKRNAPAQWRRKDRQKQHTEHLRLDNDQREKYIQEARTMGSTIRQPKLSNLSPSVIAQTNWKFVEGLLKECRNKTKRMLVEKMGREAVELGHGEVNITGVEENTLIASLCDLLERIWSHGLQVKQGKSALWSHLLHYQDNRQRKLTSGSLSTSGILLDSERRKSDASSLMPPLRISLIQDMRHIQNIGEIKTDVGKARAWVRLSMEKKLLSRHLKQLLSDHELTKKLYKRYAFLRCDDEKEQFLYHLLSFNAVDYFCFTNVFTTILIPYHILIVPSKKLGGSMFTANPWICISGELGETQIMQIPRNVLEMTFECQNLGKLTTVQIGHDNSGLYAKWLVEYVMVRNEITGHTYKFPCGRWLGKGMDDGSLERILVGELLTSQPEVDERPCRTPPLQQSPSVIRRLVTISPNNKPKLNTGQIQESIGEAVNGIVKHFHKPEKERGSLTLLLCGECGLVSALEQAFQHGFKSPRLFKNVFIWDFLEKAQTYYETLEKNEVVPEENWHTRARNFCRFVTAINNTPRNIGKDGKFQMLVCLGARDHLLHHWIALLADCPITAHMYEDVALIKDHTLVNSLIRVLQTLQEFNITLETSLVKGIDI

[3] = molecular target: T2, peptide 25; assay: microscale thermophoresis (fluorescence intensity)
[4] = molecular target: T3, peptide 21 (Homo sapiens, UniProt Q6IQ26); assay: fluorescence polarization
T3 chain: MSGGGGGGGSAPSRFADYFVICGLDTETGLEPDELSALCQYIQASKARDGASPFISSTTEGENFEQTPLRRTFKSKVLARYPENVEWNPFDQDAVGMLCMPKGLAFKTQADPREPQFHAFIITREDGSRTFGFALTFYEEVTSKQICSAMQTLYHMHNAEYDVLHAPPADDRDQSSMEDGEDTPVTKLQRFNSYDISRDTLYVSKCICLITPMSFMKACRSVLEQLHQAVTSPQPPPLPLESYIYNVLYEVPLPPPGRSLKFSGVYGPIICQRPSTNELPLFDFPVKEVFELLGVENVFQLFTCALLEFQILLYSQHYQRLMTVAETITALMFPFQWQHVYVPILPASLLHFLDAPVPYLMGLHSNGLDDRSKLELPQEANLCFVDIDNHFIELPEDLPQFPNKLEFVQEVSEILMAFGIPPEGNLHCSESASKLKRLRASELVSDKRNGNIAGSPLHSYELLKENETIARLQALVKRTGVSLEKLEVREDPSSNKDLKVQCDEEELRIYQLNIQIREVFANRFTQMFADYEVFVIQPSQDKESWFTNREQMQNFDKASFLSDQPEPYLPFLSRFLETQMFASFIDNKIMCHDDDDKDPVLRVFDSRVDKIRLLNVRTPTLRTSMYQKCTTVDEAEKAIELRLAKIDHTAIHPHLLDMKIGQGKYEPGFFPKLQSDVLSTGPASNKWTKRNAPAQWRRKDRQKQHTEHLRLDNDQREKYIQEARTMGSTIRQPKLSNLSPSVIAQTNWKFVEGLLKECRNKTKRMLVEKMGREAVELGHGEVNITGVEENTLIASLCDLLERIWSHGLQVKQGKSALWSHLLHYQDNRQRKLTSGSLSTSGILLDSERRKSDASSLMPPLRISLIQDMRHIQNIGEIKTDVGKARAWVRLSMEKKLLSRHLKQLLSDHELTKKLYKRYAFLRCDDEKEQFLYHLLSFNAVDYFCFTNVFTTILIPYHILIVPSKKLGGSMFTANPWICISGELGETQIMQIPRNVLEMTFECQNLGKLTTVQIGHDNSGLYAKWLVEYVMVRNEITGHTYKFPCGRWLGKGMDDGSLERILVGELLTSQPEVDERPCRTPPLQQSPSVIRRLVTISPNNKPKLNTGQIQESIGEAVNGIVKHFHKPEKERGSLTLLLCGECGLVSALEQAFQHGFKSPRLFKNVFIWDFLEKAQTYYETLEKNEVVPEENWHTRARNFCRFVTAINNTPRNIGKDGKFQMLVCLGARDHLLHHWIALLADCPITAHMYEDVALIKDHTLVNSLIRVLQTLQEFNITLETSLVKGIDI

[5] = molecular target: T1, StRIP3; assay: fluorescence polarization

- IC50 [1]: 33 µM
B1: Rab8a 6-176 (protein)
chain: DYLFKLLLIGDSGVGKTCVLFRFSEDAFNSTFISTIGIDFKIRTIELDGKRIKLQIWDTAGQERFRTITTAYYRGAMGIMLVYDITNEKSFDNIRNWIRNIEEHASADVEKMILGNKCDVNDKRQVSKERGEKLALDYGIKFMETSAKANINVENAFFTLARDIKAKMDKK
modifications: GppNHp-bound Rab8a; acetylated i,i+4 olefin hydrocarbon-stapled peptide

- Kd [2]: 6.6 µM
- Kd [3]: 11 µM
B2: Rab8a 6-176 (protein)
chain: DYLFKLLLIGDSGVGKTCVLFRFSEDAFNSTFISTIGIDFKIRTIELDGKRIKLQIWDTAGQERFRTITTAYYRGAMGIMLVYDITNEKSFDNIRNWIRNIEEHASADVEKMILGNKCDVNDKRQVSKERGEKLALDYGIKFMETSAKANINVENAFFTLARDIKAKMDKK
modifications: GppNHp-bound Rab8a; bicyclic olefin/alkyne crosslinked StRIP3 derivative, fluorescein-PEG label

- Kd [4]: 10.7 µM
B3: Rab8a 6-176 (protein)
chain: DYLFKLLLIGDSGVGKTCVLFRFSEDAFNSTFISTIGIDFKIRTIELDGKRIKLQIWDTAGQERFRTITTAYYRGAMGIMLVYDITNEKSFDNIRNWIRNIEEHASADVEKMILGNKCDVNDKRQVSKERGEKLALDYGIKFMETSAKANINVENAFFTLARDIKAKMDKK
modifications: GppNHp-bound Rab8a; dibrominated olefin macrocyclic StRIP3 derivative, fluorescein-PEG label

- Kd [5]: 20.7 µM
B4: Rab8a 6-176 (protein)
chain: DYLFKLLLIGDSGVGKTCVLFRFSEDAFNSTFISTIGIDFKIRTIELDGKRIKLQIWDTAGQERFRTITTAYYRGAMGIMLVYDITNEKSFDNIRNWIRNIEEHASADVEKMILGNKCDVNDKRQVSKERGEKLALDYGIKFMETSAKANINVENAFFTLARDIKAKMDKK
modifications: GppNHp-bound Rab8a; i,i+4 olefin hydrocarbon-stapled peptide, fluorescein-PEG label
